Laboratory results taken from US20230071889A1 (OSE IMMUNOTHERAPEUTICS, published 2023).

Key:
[1] = target: T1, recombinant human PD-1 (Example 2) (human, UniProt Q15116 25-167, limits assumed, biotinylated in the PD-L1 ELISA (site not stated)); assay: competition ELISA: PD-L1 coated, antibody mixed with biotinylated PD-1 at 0.6 ug/mL, streptavidin peroxidase; blocked ligand PD-L1
T1 construct: Biotinylated form in the ELISA on PD-L1; recombinant human PD-1 (100 nM) in the Biacore assay on PD-L2; also called biotinylated recombinant human PD-1; PD-1 recombinant protein

[2] = target: T2, CD132 receptor (Sinobiological 10555-H08B) (UniProt P31785 23-254); assay: Biacore, CD132 injected over the CD127/IL-7 complex on the chip
T2 construct: Bought protein injected over the CD127/IL-7 complex in Biacore; also called common γ chain
T2 sequence (looked up): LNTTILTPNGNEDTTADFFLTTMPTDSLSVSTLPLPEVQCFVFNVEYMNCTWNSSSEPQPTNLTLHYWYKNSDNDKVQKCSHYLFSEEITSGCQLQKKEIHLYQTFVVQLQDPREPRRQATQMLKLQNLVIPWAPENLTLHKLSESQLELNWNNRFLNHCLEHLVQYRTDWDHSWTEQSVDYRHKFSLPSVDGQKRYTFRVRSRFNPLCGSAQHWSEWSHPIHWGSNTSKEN
Procedure: CD127 (Sinobiological, 10975-H03H-50) was immobilized onto a CM5 biochip at 20 μg/ml and the indicated protein were added at serial concentrations (0.34; 1.03; 3.11; 9.3; 28 nM).

T1 sequence (Q15116 25-167 limits assumed): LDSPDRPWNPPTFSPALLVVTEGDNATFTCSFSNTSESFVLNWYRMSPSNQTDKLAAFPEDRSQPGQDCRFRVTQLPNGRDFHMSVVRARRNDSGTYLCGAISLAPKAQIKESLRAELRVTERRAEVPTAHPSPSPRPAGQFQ

B1: anti-PD1 antibody, chimeric form (antibody, human IgG4 S228P, kappa, V domains shown)
VH: QIQLVQSGPELKKPGETVKISCKASGYTFTHYGMNWVKQAPGKGLKWMGWINTNTGEPTYAEEFKGRFAFSLETSASAAFLQINNLKNEDTATYFCAKEREPGMDSWGQGTSVTVSS
VL: DVLLTQTPLSLPVSLGDQASISCRSSQNIVHANGNTYLEWYLQKPGQSPKLLIYKVSNRFSGVPDRFSGSGSGTDFTLKITRVEAEDLGVYYCFQGSHVPNTFGGGTKLEIKR
notes: also called anti-PD1 alone
IC50 (read off the curve) [1]: ~4 nM

B2: recombinant IL-7 cytokine (rIL7) (Biorad PHP046) (ligand, human, UniProt P13232 26-177, looked up)
chain: DCDIEGKDGKQYESVLMVSIDQLLDSMKEIGSNCLNNEFNFFKRHICDANKEGMFLFRAARKLRQFLKMNSTGDFDLHLLKVSEGTTILLNCTGQVKGRKPAALGEAQPTKSLEENKSLKEQKKLNDLCFLKRLLQEIKTCWNKILMGTKEH
notes: Bought cytokine
Kd [2]: 198 nM
